Data as given in US20140363428A1 (Chugai, published 2014).
Positions count from the first letter of the chain named. In names and notes the source's numbering stands.

B1: Fv-4-F11 (antibody, human IgG1, kappa)
heavy: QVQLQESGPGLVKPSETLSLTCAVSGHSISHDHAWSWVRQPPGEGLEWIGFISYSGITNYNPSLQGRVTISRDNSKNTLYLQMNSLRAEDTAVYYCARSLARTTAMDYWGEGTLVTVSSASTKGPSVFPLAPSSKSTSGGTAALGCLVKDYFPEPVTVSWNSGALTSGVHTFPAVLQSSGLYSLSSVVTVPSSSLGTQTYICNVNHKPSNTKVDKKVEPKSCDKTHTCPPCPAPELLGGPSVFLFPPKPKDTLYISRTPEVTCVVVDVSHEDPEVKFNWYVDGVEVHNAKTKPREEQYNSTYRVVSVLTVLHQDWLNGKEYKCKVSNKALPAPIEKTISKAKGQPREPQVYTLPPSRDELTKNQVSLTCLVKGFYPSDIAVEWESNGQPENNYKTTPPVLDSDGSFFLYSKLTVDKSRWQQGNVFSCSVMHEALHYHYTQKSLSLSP
light: DIQMTQSPSSLSASVGDSVTITCQASTDISSHLNWYQQKPGKAPELLIYYGSHLLSGVPSRFSGSGSGTDFTFTISSLEAEDAATYYCGQGNRLPYTFGQGTKVEIERTVAAPSVFIFPPSDEQLKSGTASVVCLLNNFYPREAKVQWKVDNALQSGNSQESVTEQDSKDSTYSLSSTLTLSKADYEKHKVYACEVTHQGLSSPVTKSFNRGEC
notes: VH3-F11 (M252Y/N434Y) and VL3-CK
B2: Fv-4-F890 (antibody, human IgG1, kappa)
heavy: QVQLQESGPGLVKPSETLSLTCAVSGHSISHDHAWSWVRQPPGEGLEWIGFISYSGITNYNPSLQGRVTISRDNSKNTLYLQMNSLRAEDTAVYYCARSLARTTAMDYWGEGTLVTVSSASTKGPSVFPLAPSSKSTSGGTAALGCLVKDYFPEPVTVSWNSGALTSGVHTFPAVLQSSGLYSLSSVVTVPSSSLGTQTYICNVNHKPSNTKVDKKVEPKSCDKTHTCPPCPAPELLGGPSVFLFPPKPKDTLYISRTPEVTCVVVDVSHEDPEVKFNWYVDGVEVHNAKTKPREEQYNSTYRVVSVLTVLHQDWLNGKEYKCKVSNKALPAPIEKTISKAKGQPREPQVYTLPPSRDELTKNQVSLTCLVKGFYPSDIAVEWESNGQPENNYKTTPPVLDSDGSFFLYSKLTVDKSRWQQGNVFSCSVMHEALHYHVTQKSLSLSP
light: B1 light
notes: VH3-F890 (M252Y/N434Y/Y436V) and VL3-CK; also called Fv-4-890
B3: Fv-4-F1380 (antibody, human IgG1, kappa)
heavy: B2 heavy with Y254M, S428D, M430L, Y436S, V438Y
light: B1 light
B4: Fv-4-F1381 (antibody, human IgG1, kappa)
heavy: B2 heavy with Y254M, S428E, M430L, Y436S, V438Y
light: B1 light
B5: Fv-4-F1382 (antibody, human IgG1, kappa)
heavy: B2 heavy with Y254M, S428K, M430L, Y436S, V438Y
light: B1 light
B6: Fv-4-F1383 (antibody, human IgG1, kappa)
heavy: B2 heavy with Y254M, S428R, M430L, Y436S, V438Y
light: B1 light
B7: Fv-4-F1384 (antibody, human IgG1, kappa)
heavy: B2 heavy with Y254M, S428A, M430L, Y436S, V438Y
light: B1 light
B8: Fv-4-F1385 (antibody, human IgG1, kappa)
heavy: B2 heavy with Y254M, S428Q, M430L, Y436S, V438Y
light: B1 light
B9: Fv-4-F1386 (antibody, human IgG1, kappa)
heavy: B2 heavy with Y254M, S428Y, M430L, Y436S, V438Y
light: B1 light
B10: Fv-4-F1388 (antibody, human IgG1, kappa)
heavy: B2 heavy with Y254M, M430L, Y436S, V438F
light: B1 light
B11: Fv-4-F1389 (antibody, human IgG1, kappa)
heavy: B2 heavy with Y254M, M430L, Y436S, V438T
light: B1 light
notes: M428L/N434S/Y436T (EU)
B12: Fv-4-F1390 (antibody, human IgG1, kappa)
heavy: B2 heavy with Y254M, M430L, Y436S, V438H
light: B1 light
B13: Fv-4-F1391 (antibody, human IgG1, kappa)
heavy: B2 heavy with Y254M, M430L, Y436S, V438N
light: B1 light
B14: Fv-4-F1392 (antibody, human IgG1, kappa)
heavy: B2 heavy with Y254M, M430L, Y436S, V438K
light: B1 light
B15: Fv-4-F939 (antibody, human IgG1, kappa)
heavy: B2 heavy with L237R, S241K
light: B1 light
B16: Fv-4-F1243 (antibody)
heavy: B2 heavy with L237R, S241K, S256T, Q440R, S442E
light: B1 light
notes: L235R/S239K/M252Y/S254T/N434Y/Y436V/Q438R/S440E (EU)
B17: Fv-4-F1245 (antibody)
heavy: B2 heavy with L237R, S241K, S256T, T258E, Q440R, S442E
light: B1 light
notes: L235R/S239K/M252Y/S254T/T256E/N434Y/Y436V/Q438R/S440E (EU)
B18: Fv-4-F1268 (antibody)
heavy: B2 heavy with L237R, S241K, H435D, Q440R, S442E
light: B1 light
B19: Fv-4-F1269 (antibody)
heavy: B2 heavy with L237R, S241K, H435D, Q440K, S442D
light: B1 light
B20: Fv-4-F1291 (antibody, human IgG1, kappa)
heavy: B2 heavy with L237R, S241K, H435D
light: B1 light
B21: Fv-4-F1321 (antibody)
heavy: B2 heavy with L237R, S241K, S256T, Q440K, S442E
light: B1 light
B22: Fv-4-F1323 (antibody)
heavy: B2 heavy with L237R, S241K, S256T, H435D, Q440K, S442E
light: B1 light
B23: Fv-4-F1340 (antibody)
heavy: B2 heavy with L237R, S241K, S256T, T258E, Q440K, S442E
light: B1 light
B24: Fv-4-F1166 (antibody)
heavy: B2 heavy with S256T, T258E, Y436N, V438Y, Q440R, S442E
light: B1 light
B25: Fv-4-F1167 (antibody, human IgG1, kappa)
heavy: B2 heavy with S256T, T258E, S426N, Y436N, V438Y
light: B1 light
B26: Fv-4-F1171 (antibody, human IgG1, kappa)
heavy: B2 heavy with Y254M, S426N, M430L, Y436S, V438Y
light: B1 light
B27: Fv-4-F1172 (antibody)
heavy: B2 heavy with Y254M, Y436H, V438Y, Q440R, S442E
light: B1 light
B28: Fv-4-F1173 (antibody, human IgG1, kappa)
heavy: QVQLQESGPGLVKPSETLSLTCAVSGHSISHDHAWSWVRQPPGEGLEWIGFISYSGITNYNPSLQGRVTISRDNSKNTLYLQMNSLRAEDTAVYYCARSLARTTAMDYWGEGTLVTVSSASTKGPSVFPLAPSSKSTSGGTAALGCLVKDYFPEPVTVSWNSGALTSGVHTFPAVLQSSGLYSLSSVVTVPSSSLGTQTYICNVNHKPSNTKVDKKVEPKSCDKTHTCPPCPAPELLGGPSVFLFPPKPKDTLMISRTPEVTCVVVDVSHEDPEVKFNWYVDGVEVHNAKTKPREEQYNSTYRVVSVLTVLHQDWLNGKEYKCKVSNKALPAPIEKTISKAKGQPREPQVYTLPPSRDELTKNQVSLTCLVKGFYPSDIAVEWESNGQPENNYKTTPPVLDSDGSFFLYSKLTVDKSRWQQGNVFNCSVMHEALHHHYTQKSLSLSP
light: B1 light
B29: Fv-4-N434H (antibody, human IgG1, kappa)
heavy: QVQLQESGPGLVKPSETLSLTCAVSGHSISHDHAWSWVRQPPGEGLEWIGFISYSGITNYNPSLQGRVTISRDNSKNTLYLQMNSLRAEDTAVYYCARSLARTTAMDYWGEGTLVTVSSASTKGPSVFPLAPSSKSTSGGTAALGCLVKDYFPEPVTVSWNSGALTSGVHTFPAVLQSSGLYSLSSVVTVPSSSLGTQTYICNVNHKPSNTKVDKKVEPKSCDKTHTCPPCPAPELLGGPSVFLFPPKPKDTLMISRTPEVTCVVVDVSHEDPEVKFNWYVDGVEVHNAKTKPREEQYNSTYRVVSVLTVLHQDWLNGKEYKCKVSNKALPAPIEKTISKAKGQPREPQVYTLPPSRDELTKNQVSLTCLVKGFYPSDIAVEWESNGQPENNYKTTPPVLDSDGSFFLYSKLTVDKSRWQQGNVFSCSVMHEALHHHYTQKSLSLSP
light: B1 light
B30: Fv-4-F890 (antibody, human IgG1, kappa)
heavy: B2 heavy
light: B1 light
notes: M252Y/N434Y/Y436V (EU)
B31: Fv-4-F1094 (antibody)
heavy: B2 heavy with V438Y, S444N
light: B1 light
B32: Fv-4-F1095 (antibody, human IgG1, kappa)
heavy: B2 heavy with S385N, G387S, V438Y
light: B1 light
B33: Fv-4-F1096 (antibody, human IgG1, kappa)
heavy: B2 heavy with Q388T, V438Y
light: B1 light
B34: Fv-4-F1097 (antibody, human IgG1, kappa)
heavy: B2 heavy with G387N, P389S, V438Y
light: B1 light
B35: Fv-4-F1115 (antibody, human IgG1, kappa)
heavy: B2 heavy with S426N
light: B1 light

Each binder was assayed against T1, soluble human FcRn (heterodimer of FcRn alpha chain and beta2-microglobulin) (human, UniProt P55899 24-297; P61769 21-119) (assay: SPR (Biacore), hFcRn, measured in multiplicates; n=12).
T1 construct: Signal regions are part of the expressed constructs; also called hFcRn
T1 sequence (P55899 24-297 limits assumed, chain 1 of 2): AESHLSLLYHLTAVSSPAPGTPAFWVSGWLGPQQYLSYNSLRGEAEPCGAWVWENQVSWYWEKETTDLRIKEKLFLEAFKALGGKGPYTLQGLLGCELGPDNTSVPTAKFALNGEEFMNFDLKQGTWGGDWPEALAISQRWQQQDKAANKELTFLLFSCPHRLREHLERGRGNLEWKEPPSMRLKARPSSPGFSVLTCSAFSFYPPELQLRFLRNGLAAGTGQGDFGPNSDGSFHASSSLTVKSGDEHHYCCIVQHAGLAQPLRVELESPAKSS
T1 sequence (P61769 21-119 limits assumed, chain 2 of 2): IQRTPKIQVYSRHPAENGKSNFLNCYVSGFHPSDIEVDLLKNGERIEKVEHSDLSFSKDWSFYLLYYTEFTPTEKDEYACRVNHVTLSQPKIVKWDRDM

| Binder | Kd [nM] |
| --- | --- |
| B1 | 310 |
| B2 | 110 |

The binders below were run against T2, soluble human FcRn (human, UniProt P55899 24-297; P61769 21-119) (assay: SPR (Biacore), pH 6.0).
T2 construct: Heterodimer of alpha chain and beta2-microglobulin; also called hFcRn
T2 sequence (P55899 24-297 limits assumed, chain 1 of 2): as the sequence (P55899 24-297 limits assumed, chain 1 of 2) above
T2 sequence (P61769 21-119 limits assumed, chain 2 of 2): as the sequence (P61769 21-119 limits assumed, chain 2 of 2) above

| Binder | Kd [nM] |
| --- | --- |
| B3 | 73 |
| B4 | 86 |
| B5 | 130 |
| B6 | 160 |
| B7 | 86 |
| B8 | 77 |
| B9 | 160 |
| B10 | 80 |
| B11 | 68 |
| B12 | 400 |
| B13 | 420 |
| B14 | 270 |

These binders were tested against T2, soluble human FcRn (assay: SPR (Biacore), pH 7.0).

| Binder | Kd [nM] |
| --- | --- |
| B15 | 150 |
| B16 | 130 |
| B17 | 82 |
| B18 | 200 |
| B19 | 170 |
| B20 | 150 |
| B21 | 100 |
| B22 | 150 |
| B23 | 56 |

Biological target: T2, soluble human FcRn
Assay: SPR (Biacore), pH 6.0
Remark: another data set of the same source

| Binder | Kd [nM] |
| --- | --- |
| B24 | 210 |
| B25 | 250 |
| B26 | 240 |
| B27 | 400 |
| B28 | 530 |
| B29 | 430 |

Biological target: T2, soluble human FcRn
Assay: SPR (Biacore), pH 7.0
Remark: another data set of the same source

| Binder | Kd [nM] |
| --- | --- |
| B30 | 107 |

Biological target: T2, soluble human FcRn
Assay: SPR (Biacore), pH 7.0
Remark: another data set of the same source

| Binder | Kd [nM] |
| --- | --- |
| B31 | 260 |
| B32 | 290 |
| B33 | 270 |
| B34 | 280 |

Biological target: T2, soluble human FcRn
Assay: SPR (Biacore), pH 7.0
Remark: another data set of the same source

| Binder | Kd [nM] |
| --- | --- |
| B30 | 110 |
| B35 | 130 |
